The source of these data is US20090246189A1 (Biogen, published 2009).

This assay has as its target T1, endogenous EGFR in mouse ventral midbrain (VM) tissue (mouse, UniProt Q01279 25-1210).
T1 construct: Native protein in a tissue extract
Nature of the assay: co-immunoprecipitation from mouse ventral midbrain extracts, Western blot. On the procedure: COS-7 or HEK 293 cells (100 mm dishes) were transfected with Sp35, EGFR and Sp35/EGFR. The cells were harvested after 48 hours and lysed in 1 ml lysis buffer (50 mM HEPES, pH 7.5, 150 mM NaCl, 1.5 mM MgCl₂, 1 mM EDTA, 1% Triton x-100, 10% glycerol) or RIPA buffer (50 mM TRIS, pH 7.2, 1% Triton X-100, 0.5% sodium deoxycholate, 0.1% SDS, 150 mM NaCl, 10 mM MgCl₂, 5% glycerol) for 30 minutes at 4° C. After centrifugation at 14,000×g for 15 minutes, the supernatants were incubated with Protein A/G-Sepharose beads (Santa Cruz Biotechnology) at 4° C. for 1 hour, and then 200 μl of the precleared lystates were incubated with either anti-EGFR (Santa Cruz Biotechnology) at 4° C. for 1 hour, anti-Sp35 antibody (Biogen Idec, described in U.S. Provisional Patent Application No. 60/697,336, which is incorporated by reference herein in its entirety) followed by treatment with Protein A/G-Sepharose beads. The beads were washed 3 times with lysis buffer, boiled in Laemmeli sample buffer, subjected to 4-20% SDS-PAGE, and analyzed by Western blotting with anti-EGFR antibody or anti-Sp35 antibody. The EGFR and Sp35 antibodies were visualized using anti-rabbit IgG-HRP.
Sp35 KO or WT VMs were lysed in RIPA buffer and pre-cleared by Protein A/G plus-Sepharose beads as described above. […]

B1: endogenous Sp35 (LINGO-1) in mouse ventral midbrain (VM) tissue (receptor, UniProt Q9D1T0 36-614, looked up)
chain: CPPRCECSAQDRAVLCHRKRFVAVPEGIPTETRLLDLGKNRIKTLNQDEFASFPHLEELELNENIVSAVEPGAFNNLFNLRTLGLRSNRLKLIPLGVFTGLSNLTKLDISENKIVILLDYMFQDLYNLKSLEVGDNDLVYISHRAFSGLNSLEQLTLEKCNLTSIPTEALSHLHGLIVLRLRHLNINAIRDYSFKRLYRLKVLEISHWPYLDTMTPNCLYGLNLTSLSITHCNLTAVPYLAVRHLVYLRFLNLSYNPIGTIEGSMLHELLRLQEIQLVGGQLAVVEPYAFRGLNYLRVLNVSGNQLTTLEESAFHSVGNLETLILDSNPLACDCRLLWVFRRRWRLNFNRQQPTCATPEFVQGKEFKDFPDVLLPNYFTCRRAHIRDRKAQQVFVDEGHTVQFVCRADGDPPPAILWLSPRKHLVSAKSNGRLTVFPDGTLEVRYAQVQDNGTYLCIAANAGGNDSMPAHLHVRSYSPDWPHQPNKTFAFISNQPGEGEANSTRATVPFPFDIKTLIIATTMGFISFLGVVLFCLVLLFLWSRGKGNTKHNIEIEYVPRKSDAGISSADAPRKFNMKMI
notes: Native protein in a tissue extract; Sp35 knock-out VM served as the control
As for B1, the binding result is given as “binds”.
